Here are results for 94 variants from the supplement of paper PMC10567573.

B1: SPSB1 (parent)
chain: DMRDPTYRPLKQELQGLDYCKPTR
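Also: lentivirally expressed fusions sorted by FACS into six bins by GFP to DsRed ratio, PSI derived from sequencing read proportions per bin multiplied by bin number.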

The variants in the series derive from B1. In words: protein stability index of a GFP-peptide fusion (GPS, HEK-293T) (PSI 1-6); higher = more stable. To be noted: c terminus: a fixed tail appended.
Regarding DMRDFTYRPLKQELQGLDYCKPTR, the protein stability index is 3.

Regarding DMRDTTYRPLKQELQGLDYCKPTR, the protein stability index is 3.17.

Consider DMRDATYRPLKQELQGLDYCKPTR, for which the protein stability index was 3.28.

For DMRDGTYRPLKQELQGLDYCKPTR, the protein stability index stood at 3.19.

For DMRDYTYRPLKQELQGLDYCKPTR, the protein stability index worked out at 2.93.

DMRDPTYRWLKQELQGLDYCKPTR: the protein stability index turned out to be 2.99.

In the case of DMRDPTYRRLKQELQGLDYCKPTR, the protein stability index came out at 2.25.

DMRDPTYRFLKQELQGLDYCKPTR: the protein stability index was 3.26.

Take DMRDPTYRSLKQELQGLDYCKPTR: the protein stability index came out at 3.35.

Consider DMRDPTYRDLKQELQGLDYCKPTR, for which the protein stability index was determined as 3.28.

Take DMRDPTYRTLKQELQGLDYCKPTR: the protein stability index was determined as 2.64.

With DMRDPTYRGLKQELQGLDYCKPTR, the protein stability index is 3.51.

Regarding DMRDPTYRHLKQELQGLDYCKPTR, the protein stability index was 2.35.

As for DMRDPTYQPLKQELQGLDYCKPTR, the protein stability index turned out to be 3.83.

Regarding DMRDPTYAPLKQELQGLDYCKPTR, the protein stability index was determined as 3.8.

As for DMRDPTYTPLKQELQGLDYCKPTR, the protein stability index came out at 3.08.

With DMRDPTYSPLKQELQGLDYCKPTR, the protein stability index was determined as 2.68.

Consider DMRDPTYKPLKQELQGLDYCKPTR, for which the protein stability index is 3.1.

As to DMRDPTYYPLKQELQGLDYCKPTR, the protein stability index was 3.13.

For DMRDPTYRPLKQKLQGLDYCKPTR, the protein stability index was 2.83.

With DMRDPTYRPLKQYLQGLDYCKPTR, the protein stability index worked out at 2.41.

Regarding DMRDPTYRPLKQGLQGLDYCKPTR, the protein stability index worked out at 3.59.

With DMRDPTYRPLKQVLQGLDYCKPTR, the protein stability index turned out to be 3.1.

With DMRDPTYRPLKQDLQGLDYCKPTR, the protein stability index was found to be 3.68.

On to DMRDPTYRPLKQFLQGLDYCKPTR, for which the protein stability index was found to be 2.58.

With DMRDPTYRPLKQQLQGLDYCKPTR, the protein stability index turned out to be 2.98.

Turning to DMRDPTYRPLKQHLQGLDYCKPTR, the protein stability index is 3.07.

With DMRDPTYRPLKQEGQGLDYCKPTR, the protein stability index was found to be 4.04.

For the variant DMRDPTYRPLKQEEQGLDYCKPTR, the protein stability index was 2.43.

Regarding DMRDPTYRPLKQEYQGLDYCKPTR, the protein stability index turned out to be 3.49.

With DMRDPTYRPLKQEIQGLDYCKPTR, the protein stability index turned out to be 3.35.

As for DMRDPTYRPLKQERQGLDYCKPTR, the protein stability index stood at 3.42.

KMRDPTYRPLKQELQGLDYCKPTR: the protein stability index came to 3.06.

As for LMRDPTYRPLKQELQGLDYCKPTR, the protein stability index was found to be 2.36.

For the variant SMRDPTYRPLKQELQGLDYCKPTR, the protein stability index amounted to 3.02.

Turning to YMRDPTYRPLKQELQGLDYCKPTR, the protein stability index was 2.99.

DMRDPTYRPLKPELQGLDYCKPTR: the protein stability index stood at 3.04.

Consider DMRDPTYRPLKRELQGLDYCKPTR, for which the protein stability index amounted to 3.18.

DMRDPTYRPLKWELQGLDYCKPTR: the protein stability index was 2.35.

With DMRDPTYRPLKGELQGLDYCKPTR, the protein stability index was 2.48.

Turning to DMRDPTYRPLKIELQGLDYCKPTR, the protein stability index is 2.35.

DMRDPTYRPLKSELQGLDYCKPTR: the protein stability index was determined as 3.25.

For DMRDPTYRPLKTELQGLDYCKPTR, the protein stability index came to 3.43.

Turning to DMRDPTIRPLKQELQGLDYCKPTR, the protein stability index amounted to 2.54.

For the variant DMRDPTNRPLKQELQGLDYCKPTR, the protein stability index came out at 3.34.

Regarding DMRDPTGRPLKQELQGLDYCKPTR, the protein stability index came to 2.64.

Turning to DMRDPTQRPLKQELQGLDYCKPTR, the protein stability index stood at 4.24.

Consider DMRDPTFRPLKQELQGLDYCKPTR, for which the protein stability index worked out at 2.98.

Consider DMRDPTSRPLKQELQGLDYCKPTR, for which the protein stability index worked out at 2.93.

With DMRDPTYRPLKQELQGDDYCKPTR, the protein stability index was found to be 4.65.

DMRDPTYRPLKQELQGKDYCKPTR: the protein stability index stood at 3.96.

Take DMRDPTYRPLKQELQGYDYCKPTR: the protein stability index was 3.7.

Turning to DMRDPTYRPLKQELQGTDYCKPTR, the protein stability index was 4.29.

Turning to DMRDPTYRPLKQELQGVDYCKPTR, the protein stability index is 4.

Consider DMRDPTYRPLKQELQGIDYCKPTR, for which the protein stability index worked out at 4.02.

As for DMSDPTYRPLKQELQGLDYCKPTR, the protein stability index came to 3.89.

For the variant DMADPTYRPLKQELQGLDYCKPTR, the protein stability index was 3.16.

DMLDPTYRPLKQELQGLDYCKPTR: the protein stability index came to 2.9.

On to DMIDPTYRPLKQELQGLDYCKPTR, for which the protein stability index is 2.96.

Take DMQDPTYRPLKQELQGLDYCKPTR: the protein stability index turned out to be 3.45.

Take DMRDPTYRPLKQELQGLDTCKPTR: the protein stability index turned out to be 4.32.

Regarding DMRDPTYRPLKQELQGLDQCKPTR, the protein stability index was 4.48.

As for DMRDPTYRPLKQELQGLDDCKPTR, the protein stability index turned out to be 4.37.

As to DMRDPTYRPLKQELQGLDCCKPTR, the protein stability index turned out to be 3.91.

On to DMRDPTYRPLKQELQGLDGCKPTR, for which the protein stability index stood at 4.73.

As to DMRDPTYRPLKQELQGLDECKPTR, the protein stability index worked out at 5.15.

On to DMRDPTYRPLKQELQGLDMCKPTR, for which the protein stability index was 4.

On to DMRDPTYRPLKQELQGLDVCKPTR, for which the protein stability index turned out to be 4.5.

Consider DMRDPTYRPLKQELQGLDYYKPTR, for which the protein stability index stood at 3.58.

For the variant DMRDPTYRPLKQELQGLDYTKPTR, the protein stability index was 3.71.

In the case of DMRDPTYRPLKQELQGLDYSKPTR, the protein stability index came out at 4.11.

As to DMRDPTYRPLKQELQGLDYDKPTR, the protein stability index worked out at 4.05.

As to DMRDPTYRPLKQELQGLDYWKPTR, the protein stability index worked out at 2.15.

Take DMRDPTYRPLKQELQGLDYLKPTR: the protein stability index is 2.98.

Turning to DMRDPTYRPLKQELQGLDYPKPTR, the protein stability index was 3.94.

On to DMRDPTYRPLKQELQGLDYHKPTR, for which the protein stability index is 2.93.

As to DMRDPTYRPLKQELQGLDYNKPTR, the protein stability index came to 4.05.

For the variant DMRDPTYRPLKQELQGLDYFKPTR, the protein stability index was 3.31.

Take DMRDPTYRPLKQELQGLDYKKPTR: the protein stability index was determined as 4.6.

For the variant DMRDPTYRPLKQELQGLDYVKPTR, the protein stability index came to 1.78.

In the case of DVRDPTYRPLKQELQGLDYCKPTR, the protein stability index was 3.02.

On to DTRDPTYRPLKQELQGLDYCKPTR, for which the protein stability index came to 2.64.

For DNRDPTYRPLKQELQGLDYCKPTR, the protein stability index turned out to be 3.38.

As for DQRDPTYRPLKQELQGLDYCKPTR, the protein stability index is 3.26.

As for DERDPTYRPLKQELQGLDYCKPTR, the protein stability index stood at 3.51.

For DRRDPTYRPLKQELQGLDYCKPTR, the protein stability index came to 3.71.

Regarding DKRDPTYRPLKQELQGLDYCKPTR, the protein stability index is 3.13.

With DMRDPTYRPLRQELQGLDYCKPTR, the protein stability index was 3.54.

Turning to DMRDPTYRPLSQELQGLDYCKPTR, the protein stability index came to 3.76.

As to DMRDPTYRPLTQELQGLDYCKPTR, the protein stability index worked out at 3.17.

Consider DMRDPTYRPLWQELQGLDYCKPTR, for which the protein stability index came to 2.5.

As for DMRDPTYRPLHQELQGLDYCKPTR, the protein stability index was 3.32.

In the case of DMRDPTYRPLEQELQGLDYCKPTR, the protein stability index was 4.03.

On to DMRDPTYRPLMQELQGLDYCKPTR, for which the protein stability index was determined as 3.71.
